The source of these data is EP4424325A1 (JCR Pharmaceuticals Co., Ltd., dated 2024).

Test [1] addresses T1, recombinant hTfR, extracellular region of human transferrin receptor with a histidine tag added at the … (human, UniProt P02786 89-760).
T1 construct: also called hTfR-ECD(Histag); human TfR; not shown: N-terminal histidine tag
The experiment in a line: BLI (OctetRED96), His-tagged TfR ECD on Ni-NTA sensor, peptide in solution.
Target sequence in this assay (P02786 89-760): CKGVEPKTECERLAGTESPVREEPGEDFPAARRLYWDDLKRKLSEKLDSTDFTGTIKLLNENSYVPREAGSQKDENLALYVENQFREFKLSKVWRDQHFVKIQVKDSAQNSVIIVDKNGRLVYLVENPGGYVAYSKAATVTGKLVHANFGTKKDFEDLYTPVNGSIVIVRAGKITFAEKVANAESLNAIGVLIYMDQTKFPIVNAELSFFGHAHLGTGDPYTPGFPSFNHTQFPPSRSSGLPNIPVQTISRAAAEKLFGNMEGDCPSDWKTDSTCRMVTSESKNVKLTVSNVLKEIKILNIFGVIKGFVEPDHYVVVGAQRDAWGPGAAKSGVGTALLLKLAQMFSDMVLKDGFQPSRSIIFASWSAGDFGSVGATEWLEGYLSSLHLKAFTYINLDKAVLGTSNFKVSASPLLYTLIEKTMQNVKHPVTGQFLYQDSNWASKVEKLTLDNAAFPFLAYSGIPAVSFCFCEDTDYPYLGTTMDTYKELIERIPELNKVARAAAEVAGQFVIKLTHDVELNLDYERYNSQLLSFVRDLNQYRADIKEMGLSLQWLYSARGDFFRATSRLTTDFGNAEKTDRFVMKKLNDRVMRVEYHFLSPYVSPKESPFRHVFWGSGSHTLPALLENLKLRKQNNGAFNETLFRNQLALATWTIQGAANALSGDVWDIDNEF

Test [2] deals with T2, recombinant monkey TfR, extracellular region of cynomolgus monkey transferrin receptor with a histidine tag … (cynomolgus monkey (Macaca fascicularis), UniProt Q5RDH6 89-760 (Pongo abelii entry)).
T2 construct: also called monkey TfR-ECD(Histag); cynomolgus monkey TfR; not shown: N-terminal histidine tag
T2 chain: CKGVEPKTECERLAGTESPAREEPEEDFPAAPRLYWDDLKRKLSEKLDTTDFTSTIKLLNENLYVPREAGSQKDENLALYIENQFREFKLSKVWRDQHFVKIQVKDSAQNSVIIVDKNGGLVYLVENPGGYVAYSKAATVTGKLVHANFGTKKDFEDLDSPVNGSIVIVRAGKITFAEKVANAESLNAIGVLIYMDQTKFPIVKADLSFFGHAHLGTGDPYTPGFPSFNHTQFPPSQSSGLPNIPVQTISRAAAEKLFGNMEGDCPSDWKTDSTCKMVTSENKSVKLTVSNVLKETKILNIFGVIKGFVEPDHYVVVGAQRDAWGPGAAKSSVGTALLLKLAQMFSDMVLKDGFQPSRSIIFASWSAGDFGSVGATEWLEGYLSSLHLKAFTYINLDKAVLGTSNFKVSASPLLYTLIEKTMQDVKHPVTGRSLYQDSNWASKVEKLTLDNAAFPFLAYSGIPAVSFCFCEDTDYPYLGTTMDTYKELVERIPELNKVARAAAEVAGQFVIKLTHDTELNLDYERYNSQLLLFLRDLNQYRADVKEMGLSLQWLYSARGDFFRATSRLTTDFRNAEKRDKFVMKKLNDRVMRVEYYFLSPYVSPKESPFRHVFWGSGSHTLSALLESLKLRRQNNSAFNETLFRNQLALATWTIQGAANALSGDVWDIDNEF
Kind of test: ratio calculated from the measured KD values.

For test [3], the target named is T3, recombinant hTfR containing the extracellular region of hTfR (coated on the ELISA plate in Example 16) (human, UniProt P02786 89-760).
T3 construct: That contradicts 'extracellular region' (residue 89 to the C-terminus elsewhere); also called human transferrin receptor
The experiment in a line: ELISA, recombinant hTfR coated on plate, detection with anti-hIDS monoclonal antibody.

For test [4], the target named is T2, recombinant monkey TfR, extracellular …. Kind of test: BLI (OctetRED96), His-tagged TfR ECD on Ni-NTA sensor, peptide in solution.
The target in test [5] is T1, recombinant hTfR, extracellular region …. The experiment in a line: BLI (OctetRED96), method of Example 7, His-tagged TfR ECD on Ni-NTA sensor.
The target of test [6] is T2, recombinant monkey TfR, extracellular …. The description is as above.

Where a chain is given by its changes, count along the chain named.

B1: hTfR affinity peptide 1 (VHH)
VHH: QVQLVESGGGLVHPGGSLRLSCVASGTSFSLNVVTWYRQALGKQREWVATINQSEAPTYADSVKGRFTISRDGAKNTVYLQMNSLVTEDTALYYCYDRYNEIRGQGTQVTVSS
notes: Expressed in CHO-S cells, purified on Anti-FLAG M1 agarose; also called clone 1; VHH(1)
On to B1, for which, in test [1], the Kd came to 97 nM, the koff worked out at 0.0271 s⁻¹ and the kon was determined as 280000 M⁻¹ s⁻¹. The “relative value of KD with monkey TfR (KD with hTfR taken as 1)” value (“relative value of KD with monkey TfR” below) in test [2] is 1.06.

B2: hTfR affinity peptide 2 (VHH)
VHH: B1 VHH with R19S, V23A, L31F, V33T, Q53G, E55G, Q81L
notes: The tag is stated only for peptide 1; Peptides 2 to 5 were obtained 'in the same manner'; also called clone 2; VHH(2)
Take B2: in test [1], the Kd is 61.4 nM, the koff amounted to 0.0146 s⁻¹ and the kon came out at 237000 M⁻¹ s⁻¹. In test [2], the “relative value of KD with monkey TfR” value was 2.36.

B3: VHH5-Tandem-GS3-hIDS (other)
chain: QVQLVESGGGLVQPGGSLRLSCAASGSIFDIYVMRWYRQAPGKGLEWVASIYDGGRNDYDNVVKGRFTISRDNSKNTLYLQMNSLRAEDTAVYFCNVLTYAGRPYWGQGTQVTVSSGSQVQLVESGGGLVQPGGSLRLSCAASGSIFDIYVMRWYRQAPGKGLEWVASIYDGGRNDYDNVVKGRFTISRDNSKNTLYLQMNSLRAEDTAVYFCNVLTYAGRPYWGQGTQVTVSSGGGGSGGGGSGGGGSSETQANSTTDALNVLLIIVDDLRPSLGCYGDKLVRSPNIDQLASHSLLFQNAFAQQAVCAPSRVSFLTGRRPDTTRLYDFNSYWRVHAGNFSTIPQYFKENGYVTMSVGKVFHPGISSNHTDDSPYSWSFPPYHPSSEKYENTKTCRGPDGELHANLLCPVDVLDVPEGTLPDKQSTEQAIQLLEKMKTSASPFFLAVGYHKPHIPFRYPKEFQKLYPLENITLAPDPEVPDGLPPVAYNPWMDIRQREDVQALNISVPYGPIPVDFQRKIRQSYFASVSYLDTQVGRLLSALDDLQLANSTIIAFTSDHGWALGEHGEWAKYSNFDVATHVPLIFYVPGRTASLPEAGEKLFPYLDPFDSASQLMEPGRQSMDLVELVSLFPTLAGLAGLQVPPRCPVPSFHVELCREGKNLLKHFRFRDLEEDPYLPGNPRELIAYSQYPRPSDIPQWNSDKPSLKDIKIMGYSIRTIDYRYTVWVGFNPDEFLANFSDIHAGELYFVDSDPLQDHNMYNDSQGGDLFQLLMP
notes: Two copies of peptide 5 in tandem, fused to hIDS; also called VHH5-Tandem-GS3-hI2S
Consider B3, for which the EC50 in test [3] was 0.077 nM.

B4: hTfR affinity peptide 5 (VHH)
VHH: QVQLVESGGGLVQPGGSLRLSCAASGSIFDIYVMRWYRQAPGKGLEWVASIYDGGRNDYDNVVKGRFTISRDNSKNTLYLQMNSLRAEDTAVYFCNVLTYAGRPYWGQGTQVTVSS
notes: Same CDRs as peptide 3; The tag is stated only for peptide 1; Peptides 2 to 5 were obtained 'in the same manner'; also called clone 5; VHH(5)
For the molecule B4, in test [1], the equilibrium dissociation constant (Kd) was 13.8 nM, the koff stood at 0.00562 s⁻¹ and the kon is 407000 M⁻¹ s⁻¹. Also, in test [4], the Kd worked out at 17.5 nM, the koff came out at 0.00695 s⁻¹ and the kon stood at 396000 M⁻¹ s⁻¹. In addition, in test [2], the “relative value of KD with monkey TfR” value was 1.27.

B5: hTfR affinity peptide 6 (VHH)
VHH: B4 VHH with D53A
notes: One amino acid of CDR2 of peptide 5 is substituted; also called VHH6
Regarding B5, in test [1], the Kd was found to be 137 nM, the off-rate (koff) stood at 0.0586 s⁻¹ and the kon was found to be 428000 M⁻¹ s⁻¹.

B6: hTfR affinity peptide 3 (VHH)
VHH: B4 VHH with G16E, K43N, G44Q, L45R, S74A, L78V, Y79H, R86K, A87P
notes: The tag is stated only for peptide 1; Peptides 2 to 5 were obtained 'in the same manner'; also called clone 3; VHH(3)
As to B6, in test [1], the Kd is 10.5 nM, the dissociation rate constant (koff) stood at 0.006 s⁻¹ and the kon is 571000 M⁻¹ s⁻¹. Further, in test [4], the dissociation constant Kd worked out at 10.7 nM, the koff was determined as 0.0123 s⁻¹ and the kon was 1.15e+06 M⁻¹ s⁻¹. For the same molecule, the “relative value of KD with monkey TfR” value in test [2] was 1.02.

B7: hTfR affinity peptide 4 (VHH)
VHH: QVQLVESGGGLVQAGASLRLSCAASGRTDGIDRMAWFHQAPGEGREFVAGINKRGGGVDYAPGVKGRFTLSLDSDKNTLYLQMNNLRLEDTGVYSCAVGSGRIIVKSDTWGQGTQVTVSS
notes: The tag is stated only for peptide 1; Peptides 2 to 5 were obtained 'in the same manner'; also called clone 4; VHH(4)
Take B7: in test [1], the Kd stood at 11.9 nM, the off-rate (koff) was found to be 0.0027 s⁻¹ and the kon was found to be 227000 M⁻¹ s⁻¹. Besides, in test [4], the Kd stood at 9.92 nM, the koff was found to be 0.00316 s⁻¹ and the kon worked out at 318000 M⁻¹ s⁻¹. Moreover, the “relative value of KD with monkey TfR” value in test [2] is 0.83.

B8: VHH5-GS3-hIDS (other)
chain: QVQLVESGGGLVQPGGSLRLSCAASGSIFDIYVMRWYRQAPGKGLEWVASIYDGGRNDYDNVVKGRFTISRDNSKNTLYLQMNSLRAEDTAVYFCNVLTYAGRPYWGQGTQVTVSSGGGGSGGGGSGGGGSSETQANSTTDALNVLLIIVDDLRPSLGCYGDKLVRSPNIDQLASHSLLFQNAFAQQAVCAPSRVSFLTGRRPDTTRLYDFNSYWRVHAGNFSTIPQYFKENGYVTMSVGKVFHPGISSNHTDDSPYSWSFPPYHPSSEKYENTKTCRGPDGELHANLLCPVDVLDVPEGTLPDKQSTEQAIQLLEKMKTSASPFFLAVGYHKPHIPFRYPKEFQKLYPLENITLAPDPEVPDGLPPVAYNPWMDIRQREDVQALNISVPYGPIPVDFQRKIRQSYFASVSYLDTQVGRLLSALDDLQLANSTIIAFTSDHGWALGEHGEWAKYSNFDVATHVPLIFYVPGRTASLPEAGEKLFPYLDPFDSASQLMEPGRQSMDLVELVSLFPTLAGLAGLQVPPRCPVPSFHVELCREGKNLLKHFRFRDLEEDPYLPGNPRELIAYSQYPRPSDIPQWNSDKPSLKDIKIMGYSIRTIDYRYTVWVGFNPDEFLANFSDIHAGELYFVDSDPLQDHNMYNDSQGGDLFQLLMP
notes: VHH-enzyme fusion; also called VHH5-GS3-hI2S
For B8, the 50% effective concentration (EC50) in test [3] is 1.09 nM.

B9: VHH6-GS3-hIDS (other)
chain: B8 chain with D53A
notes: VHH-enzyme fusion; also called VHH6-GS3-hI2S
As to B9, the EC50 in test [3] is 22.7 nM.

B10: VHH3-GS3-hSGSH (other)
chain: DYKDDDDKQVQLVESGGGLVQPGESLRLSCAASGSIFDIYVMRWYRQAPGNQREWVASIYDGGRNDYDNVVKGRFTISRDNAKNTVHLQMNSLKPEDTAVYFCNVLTYAGRPYWGQGTQVTVSSGGGGSGGGGSGGGGSRPRNALLLLADDGGFESGAYNNSAIATPHLDALARRSLLFRNAFTSVSSCSPSRASLLTGLPQHQNGMYGLHQDVHHFNSFDKVRSLPLLLSQAGVRTGIIGKKHVGPETVYPFDFAYTEENGSVLQVGRNITRIKLLVRKFLQTQDDRPFFLYVAFHDPHRCGHSQPQYGTFCEKFGNGESGMGRIPDWTPQAYDPLDVLVPYFVPNTPAARADLAAQYTTVGRMDQGVGLVLQELRDAGVLNDTLVIFTSDNGIPFPSGRTNLYWPGTAEPLLVSSPEHPKRWGQVSEAYVSLLDLTPTILDWFSIPYPSYAIFGSKTIHLTGRSLLPALEAEPLWATVFGSQSHHEVTMSYPMRSVQHRHFRLVHNLNFKMPFPIDQDFYVSPTFQDLLNRTTAGQPTGWYKDLRHYYYRARWELYDRSRDPHETQNLATDPRFAQLLEMLRDQLAKWQWETHDPWVCAPDGVLEEKLSPQCQPLHNEL
notes: VHH-enzyme fusion; Purified on anti-FLAG M1 gel; also called VHH-GS3-hSGSH
On to B10, for which, in test [5], the Kd is less than 0.001 nM, the koff is less than 1e-07 s⁻¹ and the kon was 423000 M⁻¹ s⁻¹. Further, in test [6], the Kd was found to be 0.00116 nM, the koff was found to be 4.81e-07 s⁻¹ and the association rate constant (kon) is 417000 M⁻¹ s⁻¹.
